Results: patent publication US20260049138A1 (Chugai, published 2026)
Changes are numbered by the printed parent chain. In names and notes the source's numbering stands.

Target: T1, CD3ε homodimer protein (human, UniProt P07766 23-126, limits assumed)
T1 construct: also called CD3 (CD3ε)
Test: SPR Biacore T200, CD3ε homodimer on chip;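 also: Light-chain single-residue variant antibodies injected over amine-coupled CD3ε homodimer on a CM4 chip at 25 °C, bound amount divided by that of the GLS3000-containing antibody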

T1 sequence (P07766 23-126 limits assumed): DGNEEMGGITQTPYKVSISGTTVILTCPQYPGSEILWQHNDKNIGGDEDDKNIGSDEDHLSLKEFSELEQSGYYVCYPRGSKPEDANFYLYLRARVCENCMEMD

B1: GLS3000 T92Y one-arm antibody (antibody, human IgG1, kappa, L234A L235A, N297A, name in Kabat numbering)
heavy: QVQLVESGGGVVQPGRSLRLSCAASGFTFSNAWMHWVRQAPGKGLEWVAQIKAKSNNYATYYAESVKGRFTISRDDSKNSLYLQMNSLKTEDTAVYYCRYVHYGAYYGVDAWGQGTTVTVSSASTKGPSVFPLAPSSKSTSGGTAALGCLVKDYFPEPVTVSWNSGALTSGVHTFPAVLQSSGLYSLSSVVTVPSSSLGTQTYICNVNHKPSNTKVDKKVEPKSCDKTHTCPPCPAPEAAGGPSVFLFPPKPKDTLMISRTPEVTCVVVDVSHEDPEVKFNWYVDGVEVHNAKTKPREEQYASTYRVVSVLTVLHQDWLNGKEYKCKVSNKALPAPIEKTISKAKGQPREPQVYTLPPSRCELTKNQVSLSCAVKGFYPSDIAVEWESNGQPENNYKTTPPVLDSDGSFFLVSKLTVDKSRWQQGNVFSCSVMHEALHNHYTQKSLSLSPDYKDDDDK
chain: EPKSSDKTHTCPPCPAPELLGGPSVFLFPPKPKDTLMISRTPEVTCVVVDVSHEDPEVKFNWYVDGVEVHNAKTKPREEQYNSTYRVVSVLTVLHQDWLNGKEYKCKVSNKALPAPIEKTISKAKGQPREPQVCTLPPSRDELTKNQVSLWCLVKGFYPSDIAVEWESNGQPENNYKTTPPVLDSDGSFFLYSKLTVDKSRWQQGNVFSCSVMHEALHNRYTQKSLSLSP
light: DIVMTQSPLSLPVTPGEPASISCRSSQSLVHSNRNTYLHWYQQKPGQAPRLLIYKVSNRFSGVPDRFSGSGSGTDFTLKISRVEAEDVGVYYCGQGYQVPYTFGQGTKLEIKRTVAAPSVFIFPPSDEQLKSGTASVVCLLNNFYPREAKVQWKVDNALQSGNSQESVTEQDSKDSTYSLSSTLTLSKADYEKHKVYACEVTHQGLSSPVTKSFNRGEC
ratio of amount bound vs unaltered GLS3000: 0.33

B2: GLS3000 V94H one-arm antibody (antibody, human IgG1, kappa, L234A L235A, N297A, name in Kabat numbering)
heavy: B1 heavy
chain: B1 chain
light: B1 light with Y97T, V99H
ratio of amount bound vs unaltered GLS3000: 0.78

B3: GLS3000 V51E one-arm antibody (antibody, human IgG1, kappa, L234A L235A, N297A, name in Kabat numbering)
heavy: B1 heavy
chain: B1 chain
light: B1 light with V56E, Y97T
ratio of amount bound vs unaltered GLS3000: 0.64

B4: GLS3000 V27cY one-arm antibody (antibody, human IgG1, kappa, L234A L235A, N297A, name in Kabat numbering)
heavy: B1 heavy
chain: B1 chain
light: B1 light with V30Y, Y97T
ratio of amount bound vs unaltered GLS3000: 0.77

B5: GLS3000 V94T one-arm antibody (antibody, human IgG1, kappa, L234A L235A, N297A, name in Kabat numbering)
heavy: B1 heavy
chain: B1 chain
light: B1 light with Y97T, V99T
ratio of amount bound vs unaltered GLS3000: 0.93

B6: GLS3000 V27cP one-arm antibody (antibody, human IgG1, kappa, L234A L235A, N297A, name in Kabat numbering)
heavy: B1 heavy
chain: B1 chain
light: B1 light with V30P, Y97T
ratio of amount bound vs unaltered GLS3000: 0.3

B7: GLS3000 T97P one-arm antibody (antibody, human IgG1, kappa, L234A L235A, N297A, name in Kabat numbering)
heavy: B1 heavy
chain: B1 chain
light: B1 light with Y97T, T102P
ratio of amount bound vs unaltered GLS3000: 0.31

B8: GLS3000 V94G one-arm antibody (antibody, human IgG1, kappa, L234A L235A, N297A, name in Kabat numbering)
heavy: B1 heavy
chain: B1 chain
light: B1 light with Y97T, V99G
ratio of amount bound vs unaltered GLS3000: 0.48

B9: GLS3000 V94Q one-arm antibody (antibody, human IgG1, kappa, L234A L235A, N297A, name in Kabat numbering)
heavy: B1 heavy
chain: B1 chain
light: B1 light with Y97T, V99Q
ratio of amount bound vs unaltered GLS3000: 0.76

B10: GLS3000 V94W one-arm antibody (antibody, human IgG1, kappa, L234A L235A, N297A, name in Kabat numbering)
heavy: B1 heavy
chain: B1 chain
light: B1 light with Y97T, V99W
ratio of amount bound vs unaltered GLS3000: 0.58

B11: GLS3000 V51I one-arm antibody (antibody, human IgG1, kappa, L234A L235A, N297A, name in Kabat numbering)
heavy: B1 heavy
chain: B1 chain
light: B1 light with V56I, Y97T
ratio of amount bound vs unaltered GLS3000: 0.81

B12: GLS3000 V94I one-arm antibody (antibody, human IgG1, kappa, L234A L235A, N297A, name in Kabat numbering)
heavy: B1 heavy
chain: B1 chain
light: B1 light with Y97T, V99I
ratio of amount bound vs unaltered GLS3000: 0.66

B13: GLS3000 V94M one-arm antibody (antibody, human IgG1, kappa, L234A L235A, N297A, name in Kabat numbering)
heavy: B1 heavy
chain: B1 chain
light: B1 light with Y97T, V99M
ratio of amount bound vs unaltered GLS3000: 0.44

B14: GLS3000 V94N one-arm antibody (antibody, human IgG1, kappa, L234A L235A, N297A, name in Kabat numbering)
heavy: B1 heavy
chain: B1 chain
light: B1 light with Y97T, V99N
ratio of amount bound vs unaltered GLS3000: 1.05

B15: GLS3000 V94F one-arm antibody (antibody, human IgG1, kappa, L234A L235A, N297A, name in Kabat numbering)
heavy: B1 heavy
chain: B1 chain
light: B1 light with Y97T, V99F
ratio of amount bound vs unaltered GLS3000: 0.71

B16: GLS3000 V94R one-arm antibody (antibody, human IgG1, kappa, L234A L235A, N297A, name in Kabat numbering)
heavy: B1 heavy
chain: B1 chain
light: B1 light with Y97T, V99R
ratio of amount bound vs unaltered GLS3000: 0.66

B17: GLS3000 V27cD one-arm antibody (antibody, human IgG1, kappa, L234A L235A, N297A, name in Kabat numbering)
heavy: B1 heavy
chain: B1 chain
light: B1 light with V30D, Y97T
ratio of amount bound vs unaltered GLS3000: 0.32

B18: GLS3000 V27cI one-arm antibody (antibody, human IgG1, kappa, L234A L235A, N297A, name in Kabat numbering)
heavy: B1 heavy
chain: B1 chain
light: B1 light with V30I, Y97T
ratio of amount bound vs unaltered GLS3000: 0.96

B19: GLS3000 V51D one-arm antibody (antibody, human IgG1, kappa, L234A L235A, N297A, name in Kabat numbering)
heavy: B1 heavy
chain: B1 chain
light: B1 light with V56D, Y97T
ratio of amount bound vs unaltered GLS3000: 0.33

B20: GLS3000 V27cL one-arm antibody (antibody, human IgG1, kappa, L234A L235A, N297A, name in Kabat numbering)
heavy: B1 heavy
chain: B1 chain
light: B1 light with V30L, Y97T
ratio of amount bound vs unaltered GLS3000: 0.84

B21: GLS3000 V94Y one-arm antibody (antibody, human IgG1, kappa, L234A L235A, N297A, name in Kabat numbering)
heavy: B1 heavy
chain: B1 chain
light: B1 light with Y97T, V99Y
ratio of amount bound vs unaltered GLS3000: 0.63

B22: GLS3000 V27cS one-arm antibody (antibody, human IgG1, kappa, L234A L235A, N297A, name in Kabat numbering)
heavy: B1 heavy
chain: B1 chain
light: B1 light with V30S, Y97T
ratio of amount bound vs unaltered GLS3000: 0.51

B23: GLS3000 V27cE one-arm antibody (antibody, human IgG1, kappa, L234A L235A, N297A, name in Kabat numbering)
heavy: B1 heavy
chain: B1 chain
light: B1 light with V30E, Y97T
ratio of amount bound vs unaltered GLS3000: 0.61

B24: GLS3000 V51G one-arm antibody (antibody, human IgG1, kappa, L234A L235A, N297A, name in Kabat numbering)
heavy: B1 heavy
chain: B1 chain
light: B1 light with V56G, Y97T
ratio of amount bound vs unaltered GLS3000: 0.84

B25: GLS3000 V94S one-arm antibody (antibody, human IgG1, kappa, L234A L235A, N297A, name in Kabat numbering)
heavy: B1 heavy
chain: B1 chain
light: B1 light with Y97T, V99S
ratio of amount bound vs unaltered GLS3000: 0.93

B26: GLS3000 V94E one-arm antibody (antibody, human IgG1, kappa, L234A L235A, N297A, name in Kabat numbering)
heavy: B1 heavy
chain: B1 chain
light: B1 light with Y97T, V99E
ratio of amount bound vs unaltered GLS3000: 0.5

B27: GLS3000 V94D one-arm antibody (antibody, human IgG1, kappa, L234A L235A, N297A, name in Kabat numbering)
heavy: B1 heavy
chain: B1 chain
light: B1 light with Y97T, V99D
ratio of amount bound vs unaltered GLS3000: 0.89

B28: GLS3000 V51P one-arm antibody (antibody, human IgG1, kappa, L234A L235A, N297A, name in Kabat numbering)
heavy: B1 heavy
chain: B1 chain
light: B1 light with V56P, Y97T
ratio of amount bound vs unaltered GLS3000: 0.32

B29: GLS3000 V94P one-arm antibody (antibody, human IgG1, kappa, L234A L235A, N297A, name in Kabat numbering)
heavy: B1 heavy
chain: B1 chain
light: B1 light with Y97T, V99P
ratio of amount bound vs unaltered GLS3000: 1.26

B30: GLS3000 V94L one-arm antibody (antibody, human IgG1, kappa, L234A L235A, N297A, name in Kabat numbering)
heavy: B1 heavy
chain: B1 chain
light: B1 light with Y97T, V99L
ratio of amount bound vs unaltered GLS3000: 0.44

B31: GLS3000 V94K one-arm antibody (antibody, human IgG1, kappa, L234A L235A, N297A, name in Kabat numbering)
heavy: B1 heavy
chain: B1 chain
light: B1 light with Y97T, V99K
ratio of amount bound vs unaltered GLS3000: 0.57

B32: GLS3000 V94A one-arm antibody (antibody, human IgG1, kappa, L234A L235A, N297A, name in Kabat numbering)
heavy: B1 heavy
chain: B1 chain
light: B1 light with Y97T, V99A
ratio of amount bound vs unaltered GLS3000: 1.05
